# Results published in publication PMC11203576 (International Journal of Molecular Sciences, 2024).
# B1: Recombinant Microcystis viridis NIES-102 lectin (rMVL) (natural protein)
# chain: MASYKVNIPAGPLWSNAEAQQVGPKIAAAHQGNFTGQWTTVVESAMSVVEVELQVENTGIHEFKTDVLAGPLWSNDEAQKLGPQIAASYGAEFTGQWRTIVEGVMSVIQIKYTF
# notes: also called Microcystis viridis lectin
# Molecular target: T1, SARS-CoV-2 spike protein RBD, original (wild-type), sfGFP fusion (SARS-CoV-2, UniProt P0DTC2)
# T1 construct: also called original RBD; original SARS-CoV-2 RBD
# Assay: SPR; Biacore T200; […] (0.01 M HEPES, 0.15 M NaCl, 3 mM EDTA, 0.05% surfactant P20, […]
# Conditions: both partners purified
binder,measurement,value
B1,Kd,2080 nM
